Assay results: publication PMC2924388, “Conformational Adaptation of Asian Macaque TRIMCyp Directs Lineage Specific Antiviral Activity” (PLoS Pathogens, 2010)

How the values were obtained:
[1] = molecular target: T1, CypA domain of Mafa TRIMCyp2 with Cyp K143E (K446E in TRIMCyp) (Macaca fascicularis); experiment: ITC; MicroCal ITC200; cyclophilin (typical concentration 1.4 mM) in the syringe, capsid (typical concentration 120 µM) in the cell; 50 mM KPO4 pH 7.4, 100 mM NaCl, 1 mM DTT; 15°C; one-state model; details: both partners purified
T1 construct: As m1 but with glutamate at Cyp 143 (the residue of CypA and of Mamu TRIMCyp); also called Mafa TCyp2 K143E; K143E mutant; source: E. coli BL21 (DE3), purified (Ni-NTA, gel filtration), as per the wild-type protein

[2] = molecular target: T2, CypA domain of Macaca fascicularis TRIMCyp2 (Mafa TRIMCyp2) (Macaca fascicularis); experiment: as above; details: both partners purified
T2 construct: Cyp 54, 66, 69 and 143 are TRIMCyp 357, 369, 372 and 446. numbers count on: CypA; Natural allele; also called Mafa TCyp2; Mafa Cyp; source: E. coli BL21 (DE3), purified (Ni-NTA, gel filtration)

B1: FIV capsid N-terminal domain (domain or fragment)
chain: PIQTVNGVPQYVALDPKMVSIFMEKAREGLGGEEVQLWFTAFSANLTPTDMATLIMAAPGCAADKEILDESLKQLTAEYDRTHPPDAPRPLPYFTAAEIMGIGLTQEQQAEARFAPARMQCRAWYLEALGKLAAIKAKS
modifications: Unmodified wild-type domain. Strain and limits are not printed: the Petaluma isolate is assumed. The start is the capsid p24 N-terminus (136); the end is set by homology to HIV-1 CA-N 1-146 (pdb 2X83)
Kd [1]: 15 µM
Kd [2]: 27 µM
